Assay results reported in the supplement of paper PMC9112550, “Optimization of the antimicrobial peptide Bac7 by deep mutational scanning” (BMC Biology, 2022).

System: Escherichia coli TOP10
Assay: shrunken log2 fold change of peptide-encoding DNA abundance (4.5 h post-induction vs induction); higher = less antimicrobial activity (less host growth inhibition)
Conditions: time post-induction: 4.5 h; library: site-saturation at positions 5, 18, 19, 20
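Also: peptides expressed intracellularly from a pBAD plasmid library in pooled LB shake-flask culture, induced with 0.3% L-arabinose, DNA abundance read by NGS, three biological replicates, DESeq2 with apeglm shrinkage.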

| Sequence | shrunken log2 fold change |
| --- | --- |
| RRIRGRPPRLPRPRPRPVPCPRP | 0.463 |
| RRIRPRPPRLPRPRPRPSWKPRP | 0.105 |
| RRIRQRPPRLPRPRPRPNWLPRP | 0.259 |
| RRIRNRPPRLPRPRPRPVVWPRP | 0.55 |
| RRIRVRPPRLPRPRPRPMMQPRP | 0.0134 |
| RRIRFRPPRLPRPRPRPDMEPRP | -0.16 |
| RRIRARPPRLPRPRPRPMYSPRP | -0.08 |
| RRIRSRPPRLPRPRPRPNSLPRP | -0.165 |
| RRIRVRPPRLPRPRPRPKFGPRP | 0.017 |
| RRIRARPPRLPRPRPRPWRIPRP | -0.0489 |
| RRIRSRPPRLPRPRPRPWDTPRP | -0.0299 |
| RRIRHRPPRLPRPRPRPLYVPRP | -0.272 |
| RRIRDRPPRLPRPRPRPEYDPRP | 0.00968 |
| RRIRERPPRLPRPRPRPCNPPRP | -0.442 |
| RRIRQRPPRLPRPRPRPHRDPRP | -0.322 |
| RRIRLRPPRLPRPRPRPQVEPRP | 0.0591 |
| RRIRWRPPRLPRPRPRPAFLPRP | -0.0114 |
| RRIRQRPPRLPRPRPRPYLGPRP | -0.0158 |
| RRIRVRPPRLPRPRPRPLIIPRP | -0.445 |
| RRIRQRPPRLPRPRPRPSHKPRP | -0.0927 |
| RRIRWRPPRLPRPRPRPETLPRP | 0.0224 |
| RRIRERPPRLPRPRPRPIGNPRP | -0.134 |
| RRIRTRPPRLPRPRPRPVNHPRP | -0.0862 |
| RRIRSRPPRLPRPRPRPVLEPRP | 0.0953 |
| RRIRYRPPRLPRPRPRPPYDPRP | -0.553 |

| Sequence | shrunken log2 fold change |
| --- | --- |
| RRIRNRPPRLPRPRPRPMQMPRP | 0.0963 |
| RRIRARPPRLPRPRPRPIGIPRP | 0.0254 |
| RRIRERPPRLPRPRPRPDVAPRP | 0.087 |
| RRIRFRPPRLPRPRPRPMKWPRP | -0.0607 |
| RRIRRRPPRLPRPRPRPSSSPRP | 0.133 |
| RRIRHRPPRLPRPRPRPRRPPRP | 0.385 |
| RRIRKRPPRLPRPRPRPLVCPRP | 0.191 |
| RRIRMRPPRLPRPRPRPHMEPRP | -0.0461 |
| RRIRPRPPRLPRPRPRPGSFPRP | 0.0277 |
| RRIRSRPPRLPRPRPRPCNVPRP | -0.175 |
| RRIRWRPPRLPRPRPRPFFQPRP | 0.329 |
| RRIRIRPPRLPRPRPRPGNHPRP | -0.227 |
| RRIRQRPPRLPRPRPRPRKSPRP | -0.172 |
| RRIRTRPPRLPRPRPRPDLTPRP | 0.129 |
| RRIRPRPPRLPRPRPRPNDFPRP | -0.438 |
| RRIRMRPPRLPRPRPRPAGHPRP | 1.24 |
| RRIRLRPPRLPRPRPRPCVTPRP | -0.498 |
| RRIRQRPPRLPRPRPRPTECPRP | 0.0119 |
| RRIRFRPPRLPRPRPRPMFMPRP | -0.14 |
| RRIRKRPPRLPRPRPRPGCSPRP | 0.289 |
| RRIRDRPPRLPRPRPRPPQTPRP | 0.115 |
| RRIRVRPPRLPRPRPRPAPIPRP | 0.152 |
| RRIRHRPPRLPRPRPRPYNWPRP | -0.928 |
| RRIRFRPPRLPRPRPRPDNHPRP | -0.232 |
| RRIRLRPPRLPRPRPRPRHLPRP | -0.818 |

| Sequence | shrunken log2 fold change |
| --- | --- |
| RRIRTRPPRLPRPRPRPPSIPRP | 0.114 |
| RRIRKRPPRLPRPRPRPEHDPRP | 0.169 |
| RRIRQRPPRLPRPRPRPDMWPRP | 0.0275 |
| RRIRQRPPRLPRPRPRPDWPPRP | 0.416 |
| RRIRSRPPRLPRPRPRPMAMPRP | 0.0808 |
| RRIRCRPPRLPRPRPRPWSEPRP | -0.0285 |
| RRIRARPPRLPRPRPRPIIFPRP | -0.323 |
| RRIRGRPPRLPRPRPRPKPLPRP | 0.375 |
| RRIRIRPPRLPRPRPRPDAEPRP | 0.874 |
| RRIRERPPRLPRPRPRPVLAPRP | 0.252 |
| RRIRARPPRLPRPRPRPGIEPRP | 0.108 |
| RRIRVRPPRLPRPRPRPGPTPRP | 0.448 |
| RRIRRRPPRLPRPRPRPPNHPRP | 0.234 |
| RRIRQRPPRLPRPRPRPYKDPRP | -0.0988 |
| RRIRDRPPRLPRPRPRPTASPRP | 0.381 |
| RRIRPRPPRLPRPRPRPFVWPRP | -0.0428 |
| RRIRTRPPRLPRPRPRPLVNPRP | -0.559 |
| RRIRTRPPRLPRPRPRPKAVPRP | 0.26 |
| RRIRFRPPRLPRPRPRPSCDPRP | -0.314 |
| RRIRFRPPRLPRPRPRPKKQPRP | 0.0157 |
| RRIRYRPPRLPRPRPRPHRSPRP | -0.017 |
| RRIRERPPRLPRPRPRPRFGPRP | 0.152 |
| RRIRWRPPRLPRPRPRPNYRPRP | -0.034 |
| RRIRWRPPRLPRPRPRPDHRPRP | -0.0843 |
| RRIRSRPPRLPRPRPRPVMSPRP | 0.11 |

| Sequence | shrunken log2 fold change |
| --- | --- |
| RRIRGRPPRLPRPRPRPHKRPRP | 0.34 |
| RRIRGRPPRLPRPRPRPINEPRP | 0.0939 |
| RRIRCRPPRLPRPRPRPRIAPRP | 0.0204 |
| RRIRMRPPRLPRPRPRPLTTPRP | 1.06 |
| RRIRHRPPRLPRPRPRPNLYPRP | -0.012 |
| RRIRYRPPRLPRPRPRPFPDPRP | -0.164 |
| RRIRTRPPRLPRPRPRPNCPPRP | -0.0894 |
| RRIRLRPPRLPRPRPRPIFWPRP | -0.189 |
| RRIRARPPRLPRPRPRPMRVPRP | 0.789 |
| RRIRIRPPRLPRPRPRPNRQPRP | -0.56 |
| RRIRWRPPRLPRPRPRPCYYPRP | -0.0954 |
| RRIRFRPPRLPRPRPRPGQAPRP | 0.0631 |
| RRIRMRPPRLPRPRPRPHTGPRP | 0.0957 |
| RRIRFRPPRLPRPRPRPFGGPRP | -0.0524 |
| RRIRNRPPRLPRPRPRPSKPPRP | -0.399 |
| RRIRLRPPRLPRPRPRPIQVPRP | -0.072 |
| RRIRIRPPRLPRPRPRPWNKPRP | -0.0719 |
| RRIRVRPPRLPRPRPRPIAYPRP | -0.184 |
| RRIRFRPPRLPRPRPRPTNDPRP | -0.414 |
| RRIRYRPPRLPRPRPRPDENPRP | -0.0185 |
| RRIRQRPPRLPRPRPRPTYAPRP | -0.0832 |
| RRIRSRPPRLPRPRPRPVELPRP | 0.105 |
| RRIRFRPPRLPRPRPRPSNKPRP | -0.0849 |
| RRIRWRPPRLPRPRPRPMILPRP | -0.14 |
| RRIRRRPPRLPRPRPRPTVTPRP | 0.144 |

| Sequence | shrunken log2 fold change |
| --- | --- |
| RRIRERPPRLPRPRPRPNAKPRP | -0.134 |
| RRIRPRPPRLPRPRPRPKSMPRP | -0.37 |
| RRIRMRPPRLPRPRPRPEYTPRP | -0.0269 |
| RRIRERPPRLPRPRPRPQAWPRP | 0.0278 |
| RRIRDRPPRLPRPRPRPAGTPRP | 0.207 |
| RRIRWRPPRLPRPRPRPPKQPRP | 1.07 |
| RRIRLRPPRLPRPRPRPTEVPRP | -0.126 |
| RRIRWRPPRLPRPRPRPCKDPRP | -0.381 |
| RRIRSRPPRLPRPRPRPIEPPRP | 0.0268 |
| RRIRSRPPRLPRPRPRPGGHPRP | 0.161 |
| RRIRTRPPRLPRPRPRPMWPPRP | -0.0463 |
| RRIRLRPPRLPRPRPRPVNVPRP | -0.00443 |
| RRIRPRPPRLPRPRPRPVVIPRP | -0.191 |
| RRIRSRPPRLPRPRPRPCIMPRP | -0.105 |
| RRIRARPPRLPRPRPRPHPKPRP | 0.508 |
| RRIRNRPPRLPRPRPRPGREPRP | 0.588 |
| RRIRGRPPRLPRPRPRPVPSPRP | 0.201 |
| RRIRRRPPRLPRPRPRPSACPRP | 0.195 |
| RRIRVRPPRLPRPRPRPAWNPRP | 0.219 |
| RRIRMRPPRLPRPRPRPMTKPRP | 0.0956 |
| RRIRRRPPRLPRPRPRPWHLPRP | -0.138 |
| RRIRIRPPRLPRPRPRPKRPPRP | 0.449 |
| RRIRRRPPRLPRPRPRPVETPRP | 0.181 |
| RRIRARPPRLPRPRPRPYQVPRP | -0.327 |
| RRIRMRPPRLPRPRPRPIYKPRP | -0.0684 |
